For test [1], the target named is SARS-CoV-1 spike on pseudovirus (SARS-CoV-1) (UniProt P59594). Description: cell-based or functional assay.
Test [2] deals with SARS-CoV-2 spike on pseudovirus or live virus (USA-WA1/2020, WT) (SARS-CoV-2) (UniProt P0DTC2). Description: cell-based or functional assay.

On to REGN10933 (antibody), for which the PSV in HeLa-ACE2 cells IC50 in test [1] is over 25000 ng/mL. Further, in test [2], the PSV in HeLa-ACE2 cells IC50 is 6 ng/mL, the live virus IC50 (HeLa-ACE2) turned out to be 2 ng/mL and the live virus IC50 (Vero) is 1 ng/mL.

In test [1], REGN10987 (antibody) came in with a PSV in HeLa-ACE2 cells IC50 of over 25000 ng/mL. Moreover, in test [2], the PSV in HeLa-ACE2 cells IC50 is 93 ng/mL, the live virus IC50 (HeLa-ACE2) turned out to be 5 ng/mL and the live virus IC50 (Vero) worked out at 1 ng/mL.

For the origin of these results see patent US20230357364A1.
